Measured values from the nanobody polyreactivity screen of Harvey et al. (2022).

assay: yeast display, Sf9 membrane polyspecificity reagent, FACS + sequencing; frameworks hold sequencing errors
In short: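 Polyreactivity labels are assigned by the sorting gate from which each nanobody was recovered. The gates were low and high (top ~1%), set on anti-HA fluorescence for expression and streptavidin fluorescence for reagent binding. Before sorting, galactose-induced (36–48 hours) yeast display cells were stained for 1 hour at 4 °C with 10% biotinylated, detergent-solubilized Sf9 membrane reagent.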

Sequence | polyreactivity (PSR sort gate)
QVQLVESGGGLVQAGGSLRLSSAASGSTFSDYAMGWYRQAPGKERELVAGITGGGGTYYADSVKGRFTISRDNAKNTVYLQMNSLKPEDTAVYYCAAGRRHGFGYWGQGTQVTVSS | low polyreactivity
QVQLVESGGGLVQAGGSLRLSCAASGRIFGLNGMGWSRQAPGKERELVARISSVGSTYSADSVKGRFTISRDNAKNTVDLQKNSLTPEDTSVYYCNRRRSRYLPTPDRIVEYDYWGQGTQVTVSS | low polyreactivity
QVQLVESGGGLVQAGGSLRLSCAASGSTFDWYAMGWYRQAPGKERELVATIRYRGGTSYADSVKGRFTISRDNEKNTVYLQMNSLKPEDTAVYYCNAQLYIFDDSYNYWGFDYWGQGTQVTVSS | high polyreactivity
QVQLVESGGGLVQAGGSLRLSCAASGSTFSPYAMGWYRQAPGKERELVAAINYSSGSTYYADSVKGRFTISRDNAKNTVYFQMNSLKTEDTAVYYCAKGWYAGYPYDYWGQGTQVTVSS | low polyreactivity
QVQLVESGGGLVQAGGSLRLSCAASGSIFSIYAMGWSRQAPGTERELVATITRNSGRTYYADSVKGRFTISRDNAKNTVYLQMNSLKPEDTAVYYCAASVKIISYLVHSEFLGGELDYWGQGTQVTVSS | low polyreactivity
QVQLVESGGGLVQAGGSLRLSCAASGGTFRPYAIGWYRQAPGKERELVATIRSSGGRTYYADSVKGRFTISRDNAKNTVYLQMNSLKPEDTAVYYCAKRAQTYYGYVYWGQGTQVTVSS | high polyreactivity
QVQLVESGGGLVQAGGSLRLSCAASGSIFGGYAMGWYRQAPGKERELVAAITSSGGRTYYADSVKGRFTISRDNAKNTVDLQMNSLKPEDTAVYYCAASPNYYYYYPMYYWGQGTQVTVSS | high polyreactivity
QVQLEESGGGLVQAGGSLRLSCAASGGIFLGYAMGWYRQAPGTERELVAAISDSGGSTDYADSVKGRFTISRDHAKTTVYLQTHSLKPDDTAVYYCAAERRSTAGWLYDYWGQGTQVTVSS | high polyreactivity
QVQLVESGGGLVQAGGSLRLSCAASGFTFSYYAMGWYRQAPGKERELVAAISFNGGRTYYADSVKGRFTISRDNAKNTVYLQMISLKPEDTAVYYCAARSLRPETLGDYWGQGTQVTVSS | high polyreactivity
QVQLVESGGGLVQAGGSLRLSCAASGSIFRWYAMGWSRQAPGKERELVAAISKSGGTTYYADSVKGRFTISRDNAKNTVYLQMNSLKPEDTAVYYCAARRYPYGGYGYRYDYWGQGTQVTVSS | high polyreactivity
QVQLVESGGGLVQAGGSRRLSCAASGRTFYYAMGWYRQAPGKETQLVATITSGGGSTYYADSVKGRFSISRDNAKNTVYLQMNSLKPEDTAVYYCAADYKSSPPLPEYDYWGQGTQVTVSS | high polyreactivity
QVQLVESGGGLVQAGGSLRLSCAASGFTFAGYGMGWYRQAPGKERELVAAISSSGGSTYYADSVKGRFTISRDNAKNTVYLQMNSLIPEDTAVYYCAAGRPYGDGDYWGQGTQVNVSS | high polyreactivity
QVQLVESVGGLVQAGVSLRLSCAASGRIFGRYPMGWYRQAPGKERELVAAISFNGGSTSYADSVKGRFTISRDNAKNTVYLQMNSLKQEDTAVYYCAAKYRGFNYWGQGTQVTVSS | high polyreactivity
QVQLVESGGCLDQAGGSLRLSCAASGITFGPYAMGWYSQAPGKERELVAAITWGGGSTYYADSVKGRFTLSRDNAKNTDYLLMNSLKPEDTADYYCNAEGSTTSRYLPYDYWGQGTQVTVSS | low polyreactivity
QVQLVESGGGLVQAGGSLRLSCAASGSTYSWYVMGWYRQAPGKERELVAAISYRGGRTYYADSVKGRFTISRDNAKNTVYLQMNSLKPEDTAVYYCAARGVVDAGRTNRPYDYWGQGTQVTVSS | low polyreactivity
QVQLVESGGGLVQAGGRLRLSCAASGINFSHKVMGWYRQAPGKERELVAAITYSGGSTYYADSVKGRFTSSRDNAKNTVYLQMNSLKPEDTAVYYCNALGVSRRDYDYWGQGTQVTVSS | low polyreactivity
QVQLVDSGGGLVQAGGSLRLSCAASGFILGSNVMGWYRQAPGIERELVAAISYSGGSTYYADSVKGRFTISRDNAMNTVYLQMNILKPEDTAVYYCNARPSDVWYYYWGQGTQVTVSS | low polyreactivity
QVQLVESGGGLVQAGGSLRLSCAASGFTFRKYVMGWYRQAPGKERELVAGISRSGSRTYYADSVKGRFTISRDNAKNTVYLQMNSLKPEDTAVYYCAADAAHSEYDYWGQGTQVTVSS | high polyreactivity
QVQLVESGGGLVQAGGSLRLSCAASGLTFDYYDRGGYRQAPGKERELVASITWRGSSTYYADSVKGRFTISRDNAKNTVYLQMNSLKPEDTAVYYCAARPQHFDLDLAYSGFDYWGQGTQVTVSS | high polyreactivity
QVQLVESGGGLVQAGGSLRLSCAASGRTFYNTMGLYRQAPGKERELVAAISRGGITNYADSVKGRFTISRDSAKNTGDLQMHSLKPEDTAVYYCNAEPKRYYYYYKFDSWGQGTQVTVSS | high polyreactivity
QVQLVESGGGLVQAGGSLRLSCAASGYTFLISAMGWYRQAPGKERELVAVISSGGSTSYADSVKGRFTISRDNAKNTVYLQMNSLKPEDSAVYYCAAALAGGRRGGDYWGQGTQVTVSS | low polyreactivity
QVQLVESGGGLVQAGGSLRLSCAASGSIFTYNAMGWYRQAPGKERELVAAIRLSGGSTYYADSVKGRFTISRDNAKNTVYLQMNSLKPEDTAVYYCATEYDYGSWYPDGWGIFDYWGQGTQVTVSS | low polyreactivity

Sequence | polyreactivity (PSR sort gate)
QVQLVESGGGLVQAGGSLRLSCAASGRTFWYYGMGWYRQAPGKERELVAAISRSGGRTSYADSVKGRFTISRDNAKNTVYLQMNSLKPEDTAVYYCATDGYYRYGYWGQGTQVTVSS | high polyreactivity
QVQLVESGGGLVQAGGSLRLSCAASGSIFATYAMGWYRQAPGKERELVADISWNGGSTYYADSVKGRFTISRDNAKNTVYLQMNSLKPEDTAVYYCAVGYWGRFGFRGYGYWGQGTQVTVSS | low polyreactivity
HVQLVESGGGLVQAGGSLRLSCAASGLTFAQYAMGWYRQAPGNERALVAAITGSGGSTYYADSVKGRFTISRDNAKNTVYLQLNSLKPEDTAVYYCNKLFYRWRIVDKYYYWGQGTQVTVSS | high polyreactivity
QVQLVESGGGLVQAGGSLRLICAASGITFVYYAMGWYRQAPGKERELVAAISTSGDSTYYADSVKGRFTISRDNAKNTVYLPMNSLKPEDTAVYYCAADADYYQYGWRVYYWGQGTQVTVSS | low polyreactivity
QVQLVESGGGLVQAGGSLRLSCAASGIILRYYAMGWYRQAPGKERELVAAISGSGTRTYYADSVKGRFTISRDNAKNTVYLQMNSLKPEDTAVYYCAALVWGGYDYWGQGTQVTVSS | high polyreactivity
QVQLVESGGGLVQAGGSLRLSCAASGITFVLYAMGWYRQAPGKERELVAAITWRGGSTYYADSVKGRFTISRDNAKNTVYLQMNSLKPEDTAVYYCAAVPFTSYRQGDYWGQGTQVTVSS | low polyreactivity
QVQLVESGGGLVQAGGSLRLSCAASGSTFYSNAMGWYRQAPGKERELVATISQRGGRTYYADSVKGRFTISRDNAKNTVYLQMNSLKPEDTAVYYCAKAATSWYGRYGYDYWGQGTQVTVSS | low polyreactivity
QVQLVESGGGLVQAGGSLRLSCAASGSIFNIYAMGWYRQAPGKESELVAAISYSGGSTYYADSVKGRFTISRDNAKNTVYLQMNSLKPEDTAVYYCNADGYYFLISNANPLGYWGQGTQVTVSS | low polyreactivity
QVQLVESGGGLVQAGGSLRLSCAASGRIFAYNAMGWYRQAPGKERELVAAISWRVGCTYYADSVKGRFTISRDHAKNTVYLQMNSLKPEDTAVYYCNEAYYRHYQGDYWGQGTQVTVSS | high polyreactivity
QVQLVESGGGLVQAGGSLRLSCAASGRTLGQNAMGWYRQAPGKERELVASIRSGGITDYADSVKGRFTISRDNAKNTVYLQMNCLKPEDTAVYYCAADTYGYQGSAGGHWGQGTQVTVSS | low polyreactivity
QVQLVESGGGLVQAGGSLRLSCAASGNTLGYYAMGWYRPAPGKERELVATISDDGTTYYADSVKGRFTISRDNAKNTVSLQMNSLKPEDTAVYYCATDGSAQYSMDYWGQGTQVTVSS | low polyreactivity
QLQLVESGGGLVQAGGSLRLSCAASGITFVHNAMGWYRQAPGKEREFVAAITSSGVSTYYADSVKVRFTISRDNAKNTVYLQMNSLKPEDTAVYYCAARLSTRHWFYYWGQGTQVTVSS | high polyreactivity
QVQLVESGGGLVQAGGSLRLSCAASGSTFVGYVMGWYRQAPGKERELVAAITRSGTSTYYADSVKGRFTISRDNAKNTVYLQMNSLKPEDTAVYYCARRYVSSDYYYWGQGTQVTVSS | low polyreactivity
QVQLVESGGGLVQAGGSLRLSCAASGSTLSWYAMGWYRQAPGKERELVAAITRGGSTYYADSVKGRFTISRDNAKNTVYLQMNSLKPEDTAVYYCNAGRDGSRFQYRYDYWGQGTQVTVSS | low polyreactivity
QVQLVESGGGLVQAGGSLRLSCAASGRTFYYNTMGWYRQAPGKERELVATITSSGGRTYYADSVKGRFTISRDYAKNTVYLQMNSLKPEDTAVYYCNAALSRAFKHSTGYDYWGQGTQVTVSS | low polyreactivity
QVQLVESGGGLVQAGGSLRLSCPASGLIFLHNAMGWYRQAPGKERELVATISLSGGSTYADSVKGRFTISRDNAKNTVYLQLYSLKPEDTAVYYCAAGGQYYIIRYDYWGQGTQVTVSS | low polyreactivity
QVQLVESGGRLVQAVGSLRLSCAASGFTSHKYAMGWYRQAPGKERELVAAITSSGGRTYYADSVKGRFTISRDNAKNTVYFQTNSLKPEDTAVYYCNKLGRVGDAREYWGQGTQVTVSS | high polyreactivity
QVQLVESGGGLVQAGGSLRLSCAASGSTFQWYAIGWYRQAPGKERELVATISYTGGSRTYYADSVKGRFTISRDNAKNTVYLQMNILKPEDTAVYYCAAESNQLFYFRRFDYWGQGTQVTVSS | low polyreactivity
QVQHVESGGGLVQAGGSLRLSCAASGFIFDNYAMGWYRQSPGKERELVAAISRSGGSTYYADSVKGRFTISRDNAKTTVYLQMNSLKPEDTAVYYCATSGPRGWSLHDYWGQGTQVTVSS | high polyreactivity
QVQLVESGGGLVQAGGSLRLSCAASGRTFYWYVMGWYRQAPGKERELVATITSGGSSNYADSVKGRFTISRDNAKNTVYLQRNSLKPEDTAVYYCNRDRLVRYEAEYDYWGQGTQVTVSS | low polyreactivity
QVQLVESGGGLVQAGGSLRLSCAASGSIFYHYVMGWYRQAPGKERELVAAISSSGRTYYADSVKGRFTISRDNAKNTVYLQMNSLKPEDTAVYYCAADVHFGVGMDYWGQGTQVTVSS | low polyreactivity
